Measured values reported in publication PMC4674680, “An in cellulo-derived structure of PAK4 in complex with its inhibitor Inka1” (Nature Communications, 2015).

Tests used:
[1] = target: T1, PAK4cat (Homo sapiens, UniProt O96013); assay: In-vitro kinase assay, PAK4cat (phosphorylation of GST-Raf13); assay type: biochemical; conditions: in vitro
T1 construct: PAK1 (1–545) and PAK4 (286–591), respectively; 6His (N); made in house; host or cells: Escherichia coli BL21-CodonPlus(DE3)
Method: Purified PAK1 or PAK4 (50 nM in 25–50 μl) were incubated with 10 μM GST-Raf1S338 peptide in 10 μM ATP (2 μCi of γ32P ATP) of kinase buffer (25 mM HEPES, pH 7.3, 0.1% Triton X-100, 50 mM KCl, 10 mM MgCl2, 1 mM dithiothreitol) at 30 °C for 20 min. Samples were analysed by SDS–PAGE or adsorption of the GST substrate mix onto polyvinylidene difluoride membranes, followed by extensive washing to remove free γ32P-ATP. The synthetic peptides of 95% purity, as determined by HPLC and mass spectrometric analyses (GenScript), were soluble in aqueous PBS. Stock solutions (10 mM) were quantified via calculated extinction coefficients and absorbance measurements at 280 nm and stored at −80 °C. The diluted peptides were incubated at the indicated concentrations with the kinase on ice (10 min) before addition of γ32P ATP and subsequent incubation at 30 °C. The synthetic peptide array (Jerini Biotools) was phosphorylated in situ as described previously.

[2] = system: PAK4; assay: Co-immunoprecipitation of HA-Inka1 by FLAG-tagged PAK4 constructs; assay type: binding, human; conditions: Fig. 1b; mammalian cells; PAK4* = RR48/49AE
Method: Transfection of cell culture and immunoprecipitation
Monkey COS-7 cells, human HEK293 and U2OS were grown in DMEM medium with 4,500 mg l^−1 glucose supplemented with 10% bovine calf serum (Hyclone). HeLa cells were grown in Eagle's MEM medium supplemented with L-glutamine, sodium bicarbonate, sodium pyruvate and 10% bovine calf serum. Transient transfections were performed with Lipofectamine 2000 according to recommended protocols. Typically, a total of 5 μg plasmid DNA was used per 60-mm dish; lysates were harvested 18 h later in ice-cold lysis buffer (0.5 ml; 25 mM HEPES, pH 7.3, 100 mM KCl, 5 mM MgCl2, 20 mM β-glycerophosphate, 5% glycerol, 0.5% Triton X-100, 5 mM dithiothreitol, 0.5 mM phenylmethyl sulfonyl fluoride, 1 mM Na3VO4 and 1 × protease inhibitor cocktail (Roche)). To test co-immunoprecipitation of proteins, the lysates were clarified by centrifugation (14,000g) and the clarified lysates were incubated while rolling (2 h) with 20 μl M2 anti-Flag Sepharose (Sigma-Aldrich, A2220). Rabbit anti-Flag (Sigma-Aldrich, F7425) or horseradish peroxidase-coupled anti-HA (Santa Cruz Biotechnology, sc-7392 HRP, 1 μg ml^−1) were used for western blot analysis.

T1 sequence (O96013 286-591): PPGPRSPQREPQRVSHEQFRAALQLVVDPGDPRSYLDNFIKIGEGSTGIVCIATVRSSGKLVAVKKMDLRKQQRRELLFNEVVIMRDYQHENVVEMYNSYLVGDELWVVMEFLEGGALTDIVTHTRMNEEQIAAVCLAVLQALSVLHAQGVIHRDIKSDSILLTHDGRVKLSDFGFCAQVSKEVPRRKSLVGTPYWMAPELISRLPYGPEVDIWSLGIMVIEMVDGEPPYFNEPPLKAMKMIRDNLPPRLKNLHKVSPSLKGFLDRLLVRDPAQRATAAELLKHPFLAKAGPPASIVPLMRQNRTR

B1: Inka1: endogenous PAK4 inhibitor, 30-kDa neural crest enriched protein (protein, UniProt Q96EL1 1-287, looked up)
PAK4-inhibitor INKA1: MDMHSARLDSFLSQLRWELLCGRDTGSPSMPGPLQPTSQTGPDVQPSHQLRASGALEEDSVCCVEEEEEEEEEAVVTEDRDAALGGPREHALDWDSGFSEVSGSTWREEELPVSQRPAPSAQPLRRQCLSVSGLPMPSRAPVASVPPVHHPRPKSTPDACLEHWQGLEAEDWTAALLNRGRSRQPLVLGDNCFADLVHNWMELPETGSEGGDGGGHRARARPPQFLLGLSEQLRRRLARARRTAMAGKRLSCPPRPEPELPADVSRFAALMSCRSRQPIICNDVSYL
[1]
  Affinity relative to AID or iBox-C, in words: much higher affinity than the corresponding AID
[2]
  Binding to activated PAK4* (mutated AID) versus wild-type PAK4, in words: significantly better than wild-type PAK4
